These results are taken from patent publication US20210292393A1 (published 2021).

B1: antibody 305 (antibody, V domains shown)
VH: QVQLVESGGGVVQPGRSLRLSCAASGFTFSSYAMHWVRQAPGKGLEWVAVISYDGSNKYYADSVKGRFTISRDNSKNTLYLQMNSLRAEDTAVYYCAREQTSYDYVWGTLGAYYYYGMDVWGQGTTVTVSS
VL: SSELTQDPAVSVALGQTVRITCQGDSLRSYYASWYQQKPGQAPVLVIYGKNNRPSGIPDRFSGSSSGNTASLTITGAQAEDEADYYCNSRDSSGNHLVFGGGTKLTVL
B2: antibody 278 (antibody, V domains shown)
VH: QVQLVQSGAEVKKPGASVKVSCKASGYTFTSYYMHWVRQAPGQGLEWMGIINPSGGSTSYAQKFQGRVTMTRDTSTSTVYMELSSLRSEDTAVYYCARDHSNADPYYDFWSGYYTRTYYYGMDVWGQGTTVTVSS
VL: not shown
B3: antibody 311 (antibody, V domains shown)
VH: QVQLQESGPGLVKPSETLSLTCTVSGYSISSGYYWGWIRQPPGKGLEWIGSIYHSGSTYYNPSLKSRVTISVDTSKNQFSLKLSSVTAADTAVYYCAREETLGSSWYESYIDYWGQGTLVTVSS
VL: SYVLTQPPSVSVAPGKTARITCGGNNIGSKSVHWYQQKPGQAPVLVIYYDSDRPSGIPERFSGSNSGNTATLTISRVEAGDEADYYCQVWDSSSDHPRVFGGGTKLTVL
B4: antibody 354 (antibody, V domains shown)
VH: QVQLVESGGGVVQPGRSLRLSCAASGFTFSSYAMHWVRQAPGKGLEWVAVISYDGSNKYYADSVKGRFTISRDNSKNTLYLQMNSLRAEDTAVYYCARDRPYYYGSGIPGYYGMDVWGQGTTVTVSS
VL: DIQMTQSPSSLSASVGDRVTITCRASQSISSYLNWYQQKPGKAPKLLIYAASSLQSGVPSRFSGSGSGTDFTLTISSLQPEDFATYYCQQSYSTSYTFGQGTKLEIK
B5: antibody 258 (antibody, V domains shown)
VH: QVQLQESGPGLVKPSETLSLTCTVSGGSISSYYWSWIRQPAGKGLEWIGRIYTSGSTNYNPSLKSRVTMSVDTSKNQFSLKLSSVTAADTAVYYCAAGYGSIDYWGQGTLVTVSS
VL: not shown
B6: antibody 308 (antibody, V domains shown)
VH: QLQLQESGPGLVKPSETLSLTCSVSGGSISSSSYHWGWIRQPPGKGLEWIGSIYYSGSTYYNPSLKSRVTISVDTSKNQFSLKLRSVTAADTAVYYCAGLRVVITFGGVIPKGGAFDIWGQGTMVTVSS
VL: QSALTQPASVSGSPGQSITISCTGTSSDVGGYNYVSWYQQHPGKAPKLMIYDVSNRPSGVSNRFSGSKSGNTASLTISGLQAEDEADYYCSSYTSSSTVVFGGGTKLTVL
B7: antibody 302 (antibody, V domains shown)
VH: QVQLVQSGAEVRKPGASVKVSCKVSGYTLSELSMHWVRQAPGKGLEWMGGFDPEDGERMYAQKFQGRVTMTEDTSTDTAYMELSSLRSEDTAIYYCTTDLSYLWSGKLEPDYWYFALWGRGTLVTVSS
VL: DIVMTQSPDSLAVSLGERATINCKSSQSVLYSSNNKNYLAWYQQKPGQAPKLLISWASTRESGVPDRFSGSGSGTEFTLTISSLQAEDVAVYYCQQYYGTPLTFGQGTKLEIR
B8: antibody 261 (antibody, V domains shown)
VH: QVQLVESGGGVVQPGRSLRLSCAASGFTFSSYAMHWVRQAPGKGLEWVAVISYDGSNKYYADSVKGRFTISRDNSKNTLYLQMNSLRAEDTAVYYCARDEAYYDILTGYINAPKNYYYYGMDVWGQGTTVTVSS
VL: DIQMTQSPSSLSASVGDRVTITCRASQGIRNDLGWYQQKPGKAPKRLIYAASSLQSGVPSRFSGSGSGTEFTLTISSLQPEDFATYYCLQHNSYPFTFGPGTKVDIK
B9: antibody 318 (antibody, V domains shown)
VH: QVQLVESGGGVVPPGRSLSLPCAASGFSFSAYAMHWLRQAPGKGLEWVAVISYDGTVKYVADSVRGRFTISRDNSNNTLYLQMTSLRSDDTAVYYCARDLGALAAAPTVYFVHWGQGTLVTVSS
VL: SYVLTQPPSVSVAPGKTATITCAGEDIGRKSVHWYQQKPGQAPVLVIFYYSDRPSGIPDRFSGSVSGNTATLTIGRVEAGDEADYFCQVWDRTTNHVIFGGGTKVTVL
B10: antibody 370 (antibody, V domains shown)
VH: QVQLVESGGGVVPPGRSLSLPCAASGFTFSAYAMHWLRQAPGKGLEWVAVISYDGTVKYVADSVRGRFTISRDNSNNTLYLQMTSLRSDDTAVYYCARDLGALAAAPTVYFVHWGQGTLVTVSS
VL: SYVLTQPPSVSVAPGKTATITCAGEDIGRKSVHWYQQKPGQAPVLVIFYYSDRPSGIPDRFSGSVSGNTATLTIGRVEAGDEADYFCQVWDRTTNHVIFGGGTKVTVL
B11: antibody 338 (antibody, V domains shown)
VH: QVQLQESGPGLVKPSETLSLTCAVSGYSISSDYYWGWIRQPPGKGLEWIGSIYHSGSTYYNPSLKSRVTISIDTSKNQFSLKLSSVTAADTAVYYCARDPGNYDILTGIFDYWGQGTLVTVSS
VL: QSALTQPASVSGSPGQSITISCTGTSSDVGVYNYVSWYQQHPGKAPKLMIYDVTNRPSGVSNRFSGSKSGNTASLTISGLQAEDEADYYCSSYTSSSTLAVYVFGTGTKVTVL
B12: antibody 297 (antibody, V domains shown)
VH: QVQLVESGGGVVQPGRSLRLSCAASGFTFSSYAMHWVRQAPGKGLEWVAVISYDGSNKYYADSVKGRFTISRDNSKNTLYLQMNSLRAEDTAVYYCARSFRGGYYYGMDVWGQGTTVTVSS
VL: DIQLTQSPSFLSASVGDRVTITCRASQGISSYLAWYQQKPGKAPKLLIYAASTLQSGVPSRFSGSGSGTEFTLTISSLQPEDFATYYCQQLNSYPLFTFGPGTKVDIK
B13: antibody 330 (antibody, V domains shown)
VH: QVQLVESGGGVVQPGRSLRLSCAASGFTFSSYAMHWVRQAPGKGLEWVAVISYDGSNKYYADSVKGRFTISRDNSKNTLYLQMNSLRAEDTAVYYCARDFQYYDFWSGYLTVSSPTSYYGMDVWGQGTTVTVSS
VL: NFMLTQPHSVSESPGKTVTISCTGSSGSIASNYVQWYQQRPGSAPTTVIYEDNQRPSGVPDRFSGSIDSSSNSASLTISGLKTEDEADYYCQSYDSSNVVFGGGTKLTVL
B14: antibody 298 (antibody, V domains shown)
VH: EVQLVESGGGLVQPGGSLRLSCAASGFTVSSNYMSWVRQAPGKGLEWVSVIYSGGSTYYADSVKGRFTISRDNSKNTLYLQMNSLRAEDTAVYYCAREEGEWEKDYYGMDVWGQGTTVTVSS
VL: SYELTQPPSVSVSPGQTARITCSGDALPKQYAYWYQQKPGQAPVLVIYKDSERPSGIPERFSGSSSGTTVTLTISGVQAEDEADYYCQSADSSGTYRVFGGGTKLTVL
B15: antibody 307 (antibody, V domains shown)
VH: QVQLVESGGGVVQPGRSLRLSCAASGFTFSSYGMHWVRQAPGKGLEWVAVIWYDGSNKYYADSVKGRFTISRDNSKNTLYLQMNSLRAEDTAVYYCAKGYTWDYYYYGMDVWGQGTTVTVSS
VL: not shown
B16: antibody 336 (antibody, V domains shown)
VH: QVQLVESGGGVVQPGRSLRLSCAASGFTFSSYAMHWVRQAPGKGLEWVAVISYDGSNKYYADSVKGRFTISRDNSKNTLYLQMNSLRAEDTAVYYCARAQTDYYDSSGWFDYWGQGTLVTVSS
VL: SYELTQPPSVSVSPGQTARITCSGDALPKQYAYWYQQKPGQAPVLVIYKDSERPSGIPERFSGSSSGTTVTLTISGVQAEDEADYYCQSADSSGTPHWVFGGGTKLTVL
B17: antibody 310 (antibody, V domains shown)
VH: EVQLVESGGGLVQPGGSLRLSCAASGFTFSSYWMSWVRQAPGKGLEWVANIKQDGSEKYYVDSVKGRFTISRDNAKNSLYLQMNSLRAEDTAVYYCARVGSSSWYFDYWGQGTLVTVSS
VL: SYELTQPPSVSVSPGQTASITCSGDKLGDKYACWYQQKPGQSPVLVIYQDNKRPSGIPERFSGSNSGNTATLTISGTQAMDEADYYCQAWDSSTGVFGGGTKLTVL
B18: antibody 277 (antibody, V domains shown)
VH: QVQLVESGGGVVQPGRSLRLSCAASGFTFSSYAMHWVRQAPGKGLEWVAVISYDGSNTYYADSVKGRFTISRDNSKNTLYLQMNSLRAEDTAVYYCARPYSGSYFNWFDPWGQGTLVTVSS
VL: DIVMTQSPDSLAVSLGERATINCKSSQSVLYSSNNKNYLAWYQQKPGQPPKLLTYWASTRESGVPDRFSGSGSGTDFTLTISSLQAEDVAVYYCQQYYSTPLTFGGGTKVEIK
B19: antibody 313 (antibody, V domains shown)
VH: QVQLVESGGGVVQPGRSLRLSCAASGFTFSSYAMHWVRQAPGKGLEWVAVISYDGSNKYYADSVKGRFTISRDNSKNTLYLQMNSLRAEDTAVYYCARGLGGSYYSLFDYWGQGTLVTVSS
VL: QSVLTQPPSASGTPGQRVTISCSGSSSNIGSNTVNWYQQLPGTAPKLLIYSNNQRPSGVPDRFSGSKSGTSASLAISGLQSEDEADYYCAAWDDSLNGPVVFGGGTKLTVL
B20: antibody 291 (antibody, V domains shown)
VH: QVQLVESGGGVVQPGRSLRLSCAASGFTFSSYAMHWVRQAPGKGLEWVAVISYDGSNKYYADSVKGRFTISRDNSKNTLYLQMNSLRAEDTAVYYCARASGGSYFGGMDVWGQGTTVTVSS
VL: QSALTQPASVSGSPGQSITISCTGTSSDVGGYNYVSWYQQHPGKAPKLMIYEVSNRPSGVSNRFSGSKSGNTASLTISGLQAEDEADYYCSSYTSSSTLYVFGTGTKVTVL
B21: antibody 353 (antibody, V domains shown)
VH: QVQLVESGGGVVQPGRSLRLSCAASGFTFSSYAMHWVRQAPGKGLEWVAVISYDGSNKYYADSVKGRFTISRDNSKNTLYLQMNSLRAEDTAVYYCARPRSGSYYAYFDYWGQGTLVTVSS
VL: DIQMTQSPSSLSASVGDRVTITCRASQGISNYLAWFQQKPGKAPKSLIYAASSLQSGVPSKFSGSGSGTDFTLTISSLQPEDFATYYCQQYNSYPPTFGGGTKVEIK

The target in the experiment is SARS-CoV-2 spike (S) protein (SARS-CoV-2, UniProt P0DTC2 14-1208).
Take B1: binding was characterised by a dissociation constant (Kd) of 13.8 nM, the off-rate constant (koff) came out at 0.001 s⁻¹ and the kon came out at 72600 M⁻¹ s⁻¹.
As to B2, binding was put at a Kd of 4.78 nM, the koff amounted to 0.000862 s⁻¹ and the kon worked out at 201000 M⁻¹ s⁻¹.
As to B3, the affinity, expressed as Kd, was 19.1 nM; the koff stood at 0.000407 s⁻¹; the kon worked out at 21300 M⁻¹ s⁻¹.
For B4, the Kd is 43.6 nM, the koff is 0.00179 s⁻¹ and the kon was 41100 M⁻¹ s⁻¹.
Taken in the same sequence, the figures for B5 were 0.996 nM, 8.36e-05 s⁻¹ and 84000 M⁻¹ s⁻¹.
For the molecule B6, binding was characterised by a dissociation constant (Kd) of 0.495 nM, the koff was 6.89e-05 s⁻¹ and the kon came out at 139000 M⁻¹ s⁻¹.
Taken in the same sequence, the figures for B7 were 0.726 nM, 7.63e-05 s⁻¹ and 105000 M⁻¹ s⁻¹.
For the molecule B8, binding was characterised by a dissociation constant (Kd) of 5.37 nM, the koff amounted to 0.000695 s⁻¹ and the kon is 129000 M⁻¹ s⁻¹.
B9 gave a Kd of 11.1 nM, a koff of 0.0017 s⁻¹ and a kon of 152000 M⁻¹ s⁻¹.
For B10, the Kd was 5.55 nM, the koff was determined as 0.000986 s⁻¹ and the kon came to 178000 M⁻¹ s⁻¹.
B11 displayed a Kd of 0.882 nM, a koff of 4.43e-05 s⁻¹ and a kon of 50200 M⁻¹ s⁻¹.
The matching figures for B12: 1.6 nM, 0.000127 s⁻¹ and 79800 M⁻¹ s⁻¹.
Taken in the same sequence, the figures for B13 were 9.54 nM, 0.00073 s⁻¹ and 76500 M⁻¹ s⁻¹.
Molecule B14 had a Kd of 0.0225 nM, a koff of 1.34e-05 s⁻¹ and a kon of 597000 M⁻¹ s⁻¹.
As for B15, binding was put at a Kd of 17 nM and the koff was found to be 0.00171 s⁻¹.
For the molecule B16, the Kd stood at 1.11 nM, the koff is 0.00021 s⁻¹ and the kon came out at 190000 M⁻¹ s⁻¹.
In turn, B17 yielded a Kd of 0.532 nM, a koff of 6.43e-05 s⁻¹ and a kon of 121000 M⁻¹ s⁻¹.
The matching figures for B18: 0.204 nM, 6.24e-05 s⁻¹ and 305000 M⁻¹ s⁻¹.
The molecule B19 gave a Kd of 0.0975 nM, a koff of 4.89e-05 s⁻¹ and a kon of 502000 M⁻¹ s⁻¹.
Molecule B20 registered a Kd of 0.117 nM, a koff of 5.43e-05 s⁻¹ and a kon of 464000 M⁻¹ s⁻¹.
The matching figures for B21: 0.0601 nM, 4.09e-05 s⁻¹ and 680000 M⁻¹ s⁻¹.

As usually defined, the Kd is the free concentration of one partner at which half of the binding sites on the other are occupied at equilibrium, for simple one-to-one binding. A higher Kd goes with a looser complex. In general, koff refers to a measure of how fast the partners let go of each other. Low values mean a long-lived complex, high ones a short-lived complex. Broadly, the kon is a measure of how fast the partners come together. A higher kon goes with faster complex formation.
